Assay results reported in article doi:10.1101/2020.12.12.421834 (bioRxiv, 2020).
Numbering of substitutions follows the chain as printed.

T1: PD1 N-terminal loop-GST fusion protein (Homo sapiens)
T1 chain: LDSPDRPWNP

B1: M1-5 anti-PD1 antibody (human IgG4/kappa, C-terminal 6xHis) (antibody, V domains shown)
VH: QVQLVESGGDVVQPGGSLRLSCTVSGAVFRDLGMEWVRQAPGKGLEWLAVIWYDGGRKHYADSVKGRFTISRDNSRNMLFLQMNGLRVDDTAMYYCTRSHSTDDYWGQGTLVTVSS
VL: EIVLTQSPATLSVSPGERATLSCRASQSISSDLAWFQQKPGQAPRLIIHGASKRATGIPARFSGSGSGTDFTLTISSLEPEDFAVYYCQQRDSWPLNFGGGTKVEIK
B2: M1-4 anti-PD1 antibody (human IgG4/kappa, C-terminal 6xHis) (antibody, V domains shown)
VH: QVQLVESGGDVVQPGGSLRLSCAVSGVTFGDFGFEWVRQAPGKGLEWVAVIWYDGSRKHYAESVRGRFTISRDNSRNMMYLEMTGLRVEDTAKYYCTRSHSHEDYWGQGTLVTVSS
VL: B1 VL with V13L, S31N, D32Y, P40S, G50D, S52F, T56A, A60T, S93N
B3: M2-3 anti-PD1 antibody (human IgG4/kappa, C-terminal 6xHis) (antibody, V domains shown)
VH: QGHLVESGGDVVLPGGSLRLSCTESGVDLSDFGIHWVRQTPGKGLEWVALIWYDGSKKFYADSVKDRFTISRDNSKNMVYLEMISLRVEDTAMYFCARGIRRGPWFTYWGPGTLVTVST
VL: B1 VL with A9V, T10I, V13L, K39T, H49Y, G50D, K53N, D92S, S93N, N97T
B4: M2-5 anti-PD1 antibody (human IgG4/kappa, C-terminal 6xHis) (antibody, V domains shown)
VH: QVQLVESGGDVVQPGGSLRLSCAASGVVFSDYGLYWVRQAPGKGLEWVALIWYDGSKKFYADSVKGRFSISRDNSKNMLYLQMNNLRADDSAIYYCSRGIRQGPWFAYWGQGTRVTVSP
VL: B1 VL with V13L, A34T, H49Y, G50D, K53N, A84V, Q89L, D92S, S93D, N97T
B5: M2-2 anti-PD1 antibody (human IgG4/kappa, C-terminal 6xHis) (antibody, V domains shown)
VH: QVQLVESGGDVVQPGGSLRLSCSASGLVISDYGMNWVRQAPGKGLEWVGLIWYDGSKKYYSDFVKGRFTISRDNSKNILYLQMNNLRAEDTAMYYCARFLIGATRRGNAMDYWGQGTSVTVSS
VL: EVVLTQSPATLSLSPGERATLSCRASQSIDSDLAWSQQKPGQPPRLIIYDASNRATGIPARFSGSGSGTDFTLTISSLEPEDFAVYYCQQRSDWPLTFGGGTKVEIR
B6: M2-1 anti-PD1 antibody (human IgG4/kappa, C-terminal 6xHis) (antibody, V domains shown)
VH: B5 VH with I29F, S30R, S56T, I78M, M93I, T120I
VL: B5 VL with P40T
B7: M1-6 anti-PD1 antibody (human IgG4/kappa, C-terminal 6xHis) (antibody, V domains shown)
VH: B2 VH with P14S, T28V, G30S, F32Y, E62D, R65Q, S75F, M79L, E82Q
VL: EIVLTQSPATLSLSPGERATLSCGASQNIDNSLAWFQQKPGQAPRLIIYDASKRATGIPARFSGSGSGTDFTLTISTLEPEDFAVYYCQQRDHWPLNFGGGTKVEVK
B8: M1-3 anti-PD1 antibody (human IgG4/kappa, C-terminal 6xHis) (antibody, V domains shown)
VH: QEWLVESGGDVVQPGGSLRLSCATSKVTFNDFGIHWVRQAPGKGLEWVAIIWYDGSRNHYADSVRGRFTLSRDNSKNMVHLHMSSLRTEDTAMYYCARGIHSNDDYWGQGTMVTVSS
VL: EIVLTQSPATLSLSPGERATLSCRTSQSVSSDLAWFQQKPGQAPRLFIFDASKRVNGIPARFSGSGSGTDFTLTISSLEPEDFAVYYCQQRTDWPLTFGGGSRVEIK
B9: M1-2 anti-PD1 antibody (human IgG4/kappa, C-terminal 6xHis) (antibody, V domains shown)
VH: QVQLVESGGDVVQPGGSLRLSCAASGVAFSDYGMEWVRQAPGKGLEWLAVIWYDGSRKHYADSVKGRFTISRDNSKNILYLQMNSLRAEDTAMYYCARCHSKDDYWGQGTLVTVSS
VL: EIVLTQFPATLSLSPGERATLSCRTSQNIDSDLAWFQQKPGQAPRLIIYDASNRATGIPARFSGGGSGTDFTLTITSLEPEDFAVYYCQQRTTWPLTFGGGTKVEIK
B10: M1-1 anti-PD1 antibody (human IgG4/kappa, C-terminal 6xHis) (antibody, V domains shown)
VH: QVQLVESGGDVVQPGGSLRLSCAASGVAFRDYGMHWVRQAPGKGLEWVAVIWYDGSKKYYGDSVKGRFTVSRDNSKNMLYLEMNGLKAEDTAMYYCARNDDYWGQGTLVTVSS
VL: EIVLTQSPATLSLSPGERATLSCRASQSVSNSLSWYQQNPGQSPRLIIYDTSKRATGIPARFSGSGSGTDFTLTINNLETEDFAVYYCHQRSDWPLTFGGGTKVEIK
B11: M2-4 anti-PD1 antibody (human IgG4/kappa, C-terminal 6xHis) (antibody, V domains shown)
VH: QVQLVESGGDVVQPGGSLRLSCAASGVAFRNYGMHWVRQAPGKGLEWVAIIWYDGSNKYYADSVKGRFTISRDNSKNMLYLQMNSLRAEDTAMYYCARLSIGTTHYFDTDDYWGQGTSVTVSS
VL: EIVLTQSPATLSLSPGERATLSCRASQSVSSYLAWYQQKVGQAPRLIIFDASNRATGIPARFSGSGSGTDFTLTITSLDPEDFAVYYCQQRSAWPLTFGGGTKVEIR
B12: M1-5 anti-PD1 antibody (human IgG4/k, without C-terminal His tag) (antibody, V domains shown)
VH: B1 VH
VL: B1 VL
B13: 17D8 anti-PD1 antibody (human IgG4/k, without C-terminal His tag) (antibody, V domains shown)
VH: B10 VH with R30S, D31N, K57N, G61A, V70I, E82Q, G85S, K87R
VL: B11 VL with V40P, F49Y, T76S, D79E, A93N, R107K
B14: M2-1 anti-PD1 antibody (human IgG4/k, without C-terminal His tag) (antibody, V domains shown)
VH: B5 VH with I29F, S30R, S56T, I78M, M93I, T120I
VL: B5 VL with P40T
B15: M1-7 anti-PD1 antibody (human IgG4/kappa, C-terminal 6xHis) (antibody, V domains shown)
VH: B9 VH with V2L, A28V, Y32F, M34L, I78M, A88V, D103E
VL: B9 VL with V3E, L4V, F7S, T25A, N28S, S31T, K39R, A43T, N53K, T76S
B16: 17D8 anti-PD1 antibody (human IgG4/kappa, C-terminal 6xHis) (antibody, V domains shown)
VH: B10 VH with R30S, D31N, K57N, G61A, V70I, E82Q, G85S, K87R
VL: B11 VL with V40P, F49Y, T76S, D79E, A93N, R107K

target: T2, PD1 extracellular domain, without Fc fusion (Homo sapiens, UniProt Q15116); test: ELISA
T2 sequence (Q15116 25-170): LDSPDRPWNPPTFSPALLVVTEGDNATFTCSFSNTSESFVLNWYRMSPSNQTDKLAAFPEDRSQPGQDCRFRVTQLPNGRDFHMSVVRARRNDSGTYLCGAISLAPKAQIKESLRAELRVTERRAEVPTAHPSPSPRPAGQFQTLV

binding result | Binder
binds | B1
binds | B2
binds | B3
binds | B4
binds | B5
binds | B6
binds | B7
binds | B8

Target: T1, PD1 N-terminal loop-GST fusion protein
Test: ELISA

binding result | Binder
no binding | B9
binds | B10
binds | B1
binds | B2
binds | B3
binds | B4
binds | B11
binds | B5
binds | B6
binds | B7
binds | B8

target: T2, PD1 extracellular domain, without Fc …; test: SPR

binding result | Binder
binds | B12
binds | B13
binds | B14

target: full-length human PD1 expressed on the surface of NS1 cells (human, UniProt Q15116); test: flow cytometry on cells
Sequence (Q15116 25-288): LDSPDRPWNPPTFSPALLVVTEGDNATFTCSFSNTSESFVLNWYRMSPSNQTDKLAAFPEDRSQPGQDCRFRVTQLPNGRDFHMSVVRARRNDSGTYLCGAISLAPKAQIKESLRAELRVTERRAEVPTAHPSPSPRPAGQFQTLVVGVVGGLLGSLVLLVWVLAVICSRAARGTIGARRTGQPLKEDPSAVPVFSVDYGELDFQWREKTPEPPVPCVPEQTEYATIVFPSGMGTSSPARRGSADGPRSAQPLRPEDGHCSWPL

binding result | Binder
binds | B15
binds | B9
binds | B10
binds | B1
binds | B2
binds | B3
binds | B16
binds | B4
binds | B11
binds | B5
binds | B6
binds | B7
binds | B8
